Measured values taken from publication PMC3656483 (Cell, 2013).

B1: Cullin-associated and neddylation-dissociated protein 1 (Cand1) (natural protein, UniProt Q86VP6 1-1230, looked up)
chain: MASASYHISNLLEKMTSSDKDFRFMATNDLMTELQKDSIKLDDDSERKVVKMILKLLEDKNGEVQNLAVKCLGPLVSKVKEYQVETIVDTLCTNMLSDKEQLRDISSIGLKTVIGELPPASSGSALAANVCKKITGRLTSAIAKQEDVSVQLEALDIMADMLSRQGGLLVNFHPSILTCLLPQLTSPRLAVRKRTIIALGHLVMSCGNIVFVDLIEHLLSELSKNDSMSTTRTYIQCIAAISRQAGHRIGEYLEKIIPLVVKFCNVDDDELREYCIQAFESFVRRCPKEVYPHVSTIINICLKYLTYDPNYNYDDEDEDENAMDADGGDDDDQGSDDEYSDDDDMSWKVRRAAAKCLDAVVSTRHEMLPEFYKTVSPALISRFKEREENVKADVFHAYLSLLKQTRPVQSWLCDPDAMEQGETPLTMLQSQVPNIVKALHKQMKEKSVKTRQCCFNMLTELVNVLPGALTQHIPVLVPGIIFSLNDKSSSSNLKIDALSCLYVILCNHSPQVFHPHVQALVPPVVACVGDPFYKITSEALLVTQQLVKVIRPLDQPSSFDATPYIKDLFTCTIKRLKAADIDQEVKERAISCMGQIICNLGDNLGSDLPNTLQIFLERLKNEITRLTTVKALTLIAGSPLKIDLRPVLGEGVPILASFLRKNQRALKLGTLSALDILIKNYSDSLTAAMIDAVLDELPPLISESDMHVSQMAISFLTTLAKVYPSSLSKISGSILNELIGLVRSPLLQGGALSAMLDFFQALVVTGTNNLGYMDLLRMLTGPVYSQSTALTHKQSYYSIAKCVAALTRACPKEGPAVVGQFIQDVKNSRSTDSIRLLALLSLGEVGHHIDLSGQLELKSVILEAFSSPSEEVKSAASYALGSISVGNLPEYLPFVLQEITSQPKRQYLLLHSLKEIISSASVVGLKPYVENIWALLLKHCECAEEGTRNVVAECLGKLTLIDPETLLPRLKGYLISGSSYARSSVVTAVKFTISDHPQPIDPLLKNCIGDFLKTLEDPDLNVRRVALVTFNSAAHNKPSLIRDLLDTVLPHLYNETKVRKELIREVEMGPFKHTVDDGLDIRKAAFECMYTLLDSCLDRLDIFEFLNHVEDGLKDHYDIKMLTFLMLVRLSTLCPSAVLQRLDRLVEPLRATCTTKVKANSVKQEFEKQDELKRSAMRAVAALLTIPEAEKSPLMSEFQSQISSNPELAAIFESIQKDSSSTNLESMDTS
B2: Cand1^TAMRA (natural protein, UniProt Q86VP6 1-1230, looked up)
chain: B1 chain
modifications: TAMRA (site not stated)

Columns and labels:
^CFPCul1–Rbx1 = ^CFPCul1–Rbx1 (UniProt Q13616 1-776; P62877 1-108); experiment: FRET or BRET
GST-Rbx1–Cul1 = GST-Rbx1–Cul1 (UniProt P62877 1-108; Q13616 1-776); experiment: pull-down
Chain of GST-Rbx1–Cul1 (P62877 whole entry, chain 1 of 2): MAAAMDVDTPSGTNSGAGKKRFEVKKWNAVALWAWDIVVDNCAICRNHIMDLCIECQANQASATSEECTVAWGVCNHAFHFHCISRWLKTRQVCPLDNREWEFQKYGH
Chain of GST-Rbx1–Cul1 (Q13616 whole entry, chain 2 of 2): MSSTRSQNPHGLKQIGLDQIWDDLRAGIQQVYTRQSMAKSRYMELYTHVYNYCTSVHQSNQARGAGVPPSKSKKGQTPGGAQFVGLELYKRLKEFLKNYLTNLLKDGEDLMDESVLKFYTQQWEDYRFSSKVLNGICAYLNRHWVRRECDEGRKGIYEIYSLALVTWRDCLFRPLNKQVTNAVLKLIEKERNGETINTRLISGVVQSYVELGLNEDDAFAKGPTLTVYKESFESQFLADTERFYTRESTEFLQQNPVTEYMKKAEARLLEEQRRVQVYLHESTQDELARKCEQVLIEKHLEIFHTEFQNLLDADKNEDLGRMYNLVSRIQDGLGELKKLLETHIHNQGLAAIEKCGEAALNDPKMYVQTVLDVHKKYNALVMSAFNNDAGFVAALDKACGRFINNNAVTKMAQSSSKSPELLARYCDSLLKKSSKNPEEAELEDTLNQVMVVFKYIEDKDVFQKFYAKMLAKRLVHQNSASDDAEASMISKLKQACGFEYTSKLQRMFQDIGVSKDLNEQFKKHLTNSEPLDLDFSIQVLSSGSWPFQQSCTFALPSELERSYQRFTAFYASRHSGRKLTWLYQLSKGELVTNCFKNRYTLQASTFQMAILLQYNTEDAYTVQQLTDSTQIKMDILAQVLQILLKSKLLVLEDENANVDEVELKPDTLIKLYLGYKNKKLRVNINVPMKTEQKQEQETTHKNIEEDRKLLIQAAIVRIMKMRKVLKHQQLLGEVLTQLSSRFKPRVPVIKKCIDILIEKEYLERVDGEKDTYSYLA

Chain of ^CFPCul1–Rbx1 (Q13616 whole entry, chain 1 of 2): as the sequence (Q13616 whole entry, chain 2 of 2) above
Chain of ^CFPCul1–Rbx1 (P62877 whole entry, chain 2 of 2): as the sequence (P62877 whole entry, chain 1 of 2) above

Binder | Kd (^CFPCul1–Rbx1) [nM] | koff (GST-Rbx1–Cul1) [s⁻¹]
B1 | ≤ 53 | 
B2 |  | 1.2e-05
